Experimental data taken from patent publication US20260266833A1.
Each block holds one substance with its values, some of them ahead of it.

What was measured:
H3K9me3 peptide = assay: fluorescence polarization, FITC-peptide 0.5 nM
H3K4me3 (mouse) [1] = assay: ChIP-seq of the EGFP control in mESCs, correlation with antibody ChIP-seq of the mark, counts at 1-kb intervals
[2] = biological target: H3K27me3-marked histone H3 in chromatin of mouse embryonic stem cells (mouse); assay: as above
[3] = biological target: H3K9me3-marked histone H3 in chromatin of mouse embryonic stem cells (mouse); assay: as above
H3K4me3 (mouse) [4] = assay: ChIP-seq of the EGFP control in mESCs, correlation with antibody ChIP-seq of the mark, 1-kb bins on chromosome 19
[5] = biological target: H3K27me3-marked histone H3 in chromatin of mouse embryonic stem cells (mouse); assay: as above
[6] = biological target: H3K9me3-marked histone H3 in chromatin of mouse embryonic stem cells (mouse); assay: as above

Cbx5.wt chromodomain (tags removed), P45973 17-78, sequence (P45973 17-78 limits assumed): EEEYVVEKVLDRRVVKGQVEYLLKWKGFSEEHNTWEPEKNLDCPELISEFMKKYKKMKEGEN
Cbx1.wt chromodomain (tags removed), P83916 17-79, sequence (P83916 17-79 limits assumed): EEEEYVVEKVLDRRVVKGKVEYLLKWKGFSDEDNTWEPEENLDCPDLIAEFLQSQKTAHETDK
Cbx3.wt chromodomain (tags removed), Q13185 23-81, sequence (Q13185 23-81 limits assumed): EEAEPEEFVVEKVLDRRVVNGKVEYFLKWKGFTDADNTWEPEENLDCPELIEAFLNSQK

Kd (H3K9me3 peptide): 500 nM
Substance: Cbx1.wt chromodomain (tags removed), P83916 17-79

Kd (H3K9me3 peptide): 2000 nM
Substance: Cbx3.wt chromodomain (tags removed), Q13185 23-81

Kd (H3K9me3 peptide): 5000 nM
Substance: Cbx5.wt chromodomain (tags removed), P45973 17-78

Pearson correlation (H3K4me3 (mouse) [1]): 0.14
Pearson correlation [2]: 0.2
Pearson correlation [3]: 0.32
Pearson correlation (H3K4me3 (mouse) [4]): 0.2
Pearson correlation [5]: -0.1
Pearson correlation [6]: -0.3
Substance: EGFP
